For assay [1], the target named is T1, human Claudin18.2 (human, UniProt P56856). Description: BLI, bivalent. For orientation: BLI is a label-free optical method that tracks binding on a fibre tip over time.
The target in assay [2] is T1, human Claudin18.2. Description: BLI.
The target of the next assay is T2, mouse Claudin18.2 (mouse, UniProt P56857).
T2 chain: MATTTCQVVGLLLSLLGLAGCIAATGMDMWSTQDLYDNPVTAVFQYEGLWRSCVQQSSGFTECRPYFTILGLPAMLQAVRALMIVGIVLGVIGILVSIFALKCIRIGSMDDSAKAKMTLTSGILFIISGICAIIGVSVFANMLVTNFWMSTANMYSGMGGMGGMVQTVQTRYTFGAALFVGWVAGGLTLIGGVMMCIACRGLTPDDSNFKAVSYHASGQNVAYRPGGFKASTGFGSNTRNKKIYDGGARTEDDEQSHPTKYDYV
Description: BLI.

A further assay addresses T3, mouse Claudin18.1 (mouse, UniProt P56857).
T3 chain: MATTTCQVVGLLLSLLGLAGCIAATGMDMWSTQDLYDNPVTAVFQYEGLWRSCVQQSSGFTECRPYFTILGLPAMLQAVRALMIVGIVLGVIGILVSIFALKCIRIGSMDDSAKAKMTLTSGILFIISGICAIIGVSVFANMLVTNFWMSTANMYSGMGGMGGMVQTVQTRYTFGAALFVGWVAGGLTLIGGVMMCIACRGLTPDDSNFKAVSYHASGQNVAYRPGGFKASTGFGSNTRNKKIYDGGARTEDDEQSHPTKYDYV
Description: FACS. Background: A flow cytometer gives signals particle by particle.

The target of a further assay is T4, human Claudin18.1 (human, UniProt P56856).
T4 chain: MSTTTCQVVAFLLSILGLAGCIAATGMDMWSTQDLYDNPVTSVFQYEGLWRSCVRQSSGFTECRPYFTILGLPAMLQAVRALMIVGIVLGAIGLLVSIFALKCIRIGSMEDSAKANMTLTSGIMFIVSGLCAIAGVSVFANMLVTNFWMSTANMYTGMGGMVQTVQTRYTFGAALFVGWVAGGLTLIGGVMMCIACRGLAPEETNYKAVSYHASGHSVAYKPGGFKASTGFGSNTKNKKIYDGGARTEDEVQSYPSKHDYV
Description: ELISA. For orientation: ELISA stands for enzyme-linked immunosorbent assay.

A further assay addresses T5, rat Claudin18.1 (rat, UniProt Q5I0E5).
T5 chain: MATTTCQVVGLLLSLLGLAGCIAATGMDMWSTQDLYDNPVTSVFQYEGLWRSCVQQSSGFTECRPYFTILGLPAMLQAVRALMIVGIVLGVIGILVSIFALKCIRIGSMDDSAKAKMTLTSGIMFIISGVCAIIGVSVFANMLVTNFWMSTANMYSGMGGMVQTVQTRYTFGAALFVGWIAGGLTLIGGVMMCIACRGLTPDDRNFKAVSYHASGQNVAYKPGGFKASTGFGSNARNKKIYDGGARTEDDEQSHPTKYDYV
Description: FACS.

B1: Zolbetuximab (SI-64C8) (antibody, V domains shown)
VH: QVQLQQPGAELVRPGASVKLSCKASGYTFTSYWINWVKQRPGQGLEWIGNIYPSDSYTNYNQKFKDKATLTVDKSSSTAYMQLSSPTSEDSAVYYCTRSWRGNSFDYWGQGTTLTVSS
VL: DIVMTQSPSSLTVTAGEKVTMSCKSSQSLLNSGNQKNYLTWYQQKPGQPPKLLIYWASTRESGVPDRFTGSGSGTDFTLTISSVQAEDLAVYYCQNDYSYPFTFGSGTKLEIKR
Consider B1, for which the Kd with human Claudin18.2 [1] amounted to 5.31 nM; in the assay with human Claudin18.2 [2] it was 1.59 nM.

B2: 5208H10 (SI-64CH5) (antibody, V domains shown)
VH: QSVKESEGGLFKPTDTLTLTCTVSGFSLSTYAMSWVRQAPGNGLEWIGIIDAVGRTYYASWAKSRSTITRNTNLNTVTLKMTSLTAADTATYFCARWWDLWGQGTLVTVSS
VL: AQVLTQTASSVSAAVGGTVTINCQSSQSVYDSNDLTWYQQKPGQSPKLLIYLASTLASGVPSRFKGSGSGTQFTLTISDLECDDSATYYCAAHYNSDIYTFGGGTEVEVK
With B2, the Kd in the assay with human Claudin18.2 [2] is 3 nM.

B3: 5103F3 BSM (SI-64M1) (antibody, V domains shown)
VH: QVQLQESGGRLIKPGEPLRLSCKTSGIDLSGFAMGWVRQAPGKGLEYIGFIDSGGGAFYATWARGRFTISRTSTNTVYLQMNSLTAEDTAVYYCARHGGNTYYYAMDPWGPGTLVTVSS
VL: ALRMTQSPSSLAATTGQRVTITCQASQSISNYLAWYQQKPGQPPKLLIYSASTLASGVPSRFKGSGSGTQFTLTISCVQCEDFATYYCQQVYSVTNIDNAFGGGTRVEIK
For the molecule B3, the Kd was 0.216 nM with human Claudin18.2 [1], 1.73 nM with mouse Claudin18.2 and 1.45 nM with human Claudin18.2 [2]. In addition, the binding result with mouse Claudin18.1, with human Claudin18.1 and with rat Claudin18.1 was “no binding” each time.

These data come from US20260317420 (published 2026).
